# Test system: Escherichia coli TOP10
# Experiment: shrunken log2 fold change of peptide-encoding DNA abundance (4.5 h post-induction vs induction); higher = less antimicrobial activity (less host growth inhibition)
# Conditions: time post-induction: 4.5 h; library: site-saturation at positions 5, 18, 19, 20
# 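Further: peptides expressed intracellularly from a pBAD plasmid library in pooled LB shake-flask culture, induced with 0.3% L-arabinose, DNA abundance read by NGS, three biological replicates, DESeq2 with apeglm shrinkage.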
row,Sequence,shrunken log2 fold change
1,RRIRPRPPRLPRPRPRPNAHPRP,0.247
2,RRIRYRPPRLPRPRPRPAYMPRP,-0.396
3,RRIRRRPPRLPRPRPRPQNEPRP,0.0801
4,RRIRARPPRLPRPRPRPFYYPRP,-0.485
5,RRIRFRPPRLPRPRPRPECTPRP,0.0551
6,RRIRYRPPRLPRPRPRPRTWPRP,-0.0833
7,RRIRLRPPRLPRPRPRPYEVPRP,-0.0159
8,RRIRQRPPRLPRPRPRPMCAPRP,0.195
9,RRIRFRPPRLPRPRPRPLPFPRP,-0.452
10,RRIRWRPPRLPRPRPRPERTPRP,1.08
11,RRIRQRPPRLPRPRPRPVTIPRP,-0.0898
12,RRIRCRPPRLPRPRPRPVTAPRP,0.108
13,RRIRARPPRLPRPRPRPIEEPRP,-0.0473
14,RRIRPRPPRLPRPRPRPRGIPRP,-0.176
15,RRIRKRPPRLPRPRPRPKHEPRP,0.134
16,RRIRYRPPRLPRPRPRPGTVPRP,0.0427
17,RRIRGRPPRLPRPRPRPHTKPRP,0.104
18,RRIRSRPPRLPRPRPRPWPHPRP,-0.0676
19,RRIRARPPRLPRPRPRPAIPPRP,-0.101
20,RRIRIRPPRLPRPRPRPKFIPRP,-0.375
21,RRIRMRPPRLPRPRPRPSDPPRP,-0.0636
22,RRIRDRPPRLPRPRPRPVGGPRP,2.15

row,Sequence,shrunken log2 fold change
1,RRIRKRPPRLPRPRPRPVRRPRP,0.377
2,RRIRKRPPRLPRPRPRPYKKPRP,-0.201
3,RRIRIRPPRLPRPRPRPLANPRP,-0.145
4,RRIRARPPRLPRPRPRPRDKPRP,0.442
5,RRIRVRPPRLPRPRPRPQACPRP,1.56
6,RRIRWRPPRLPRPRPRPDLQPRP,-0.0193
7,RRIRRRPPRLPRPRPRPIGIPRP,-0.088
8,RRIRCRPPRLPRPRPRPKSQPRP,0.276
9,RRIRSRPPRLPRPRPRPPILPRP,0.0371
10,RRIRRRPPRLPRPRPRPLFAPRP,0.755
11,RRIRTRPPRLPRPRPRPCHTPRP,-0.166
12,RRIRVRPPRLPRPRPRPNAGPRP,0.0323
13,RRIRARPPRLPRPRPRPQMDPRP,0.099
14,RRIRWRPPRLPRPRPRPFMKPRP,-0.128
15,RRIRPRPPRLPRPRPRPLPIPRP,-0.301
16,RRIRMRPPRLPRPRPRPYSAPRP,0.0186
17,RRIRMRPPRLPRPRPRPNNPPRP,0.395
18,RRIRIRPPRLPRPRPRPNTYPRP,-1.02
19,RRIRERPPRLPRPRPRPLCKPRP,-0.304
20,RRIRVRPPRLPRPRPRPAMIPRP,-0.07
21,RRIRQRPPRLPRPRPRPILAPRP,0.465
22,RRIRCRPPRLPRPRPRPITQPRP,-0.0791

row,Sequence,shrunken log2 fold change
1,RRIRARPPRLPRPRPRPQIRPRP,0.0717
2,RRIRRRPPRLPRPRPRPETIPRP,0.175
3,RRIRFRPPRLPRPRPRPKSGPRP,0.0565
4,RRIRNRPPRLPRPRPRPVDRPRP,0.148
5,RRIRWRPPRLPRPRPRPFIYPRP,-0.467
6,RRIRFRPPRLPRPRPRPTRFPRP,0.429
7,RRIRMRPPRLPRPRPRPNMHPRP,-0.0148
8,RRIRDRPPRLPRPRPRPISCPRP,-0.0129
9,RRIRRRPPRLPRPRPRPMCDPRP,0.308
10,RRIRWRPPRLPRPRPRPTNGPRP,-0.134
11,RRIRYRPPRLPRPRPRPQLGPRP,-0.238
12,RRIRERPPRLPRPRPRPPCRPRP,-0.0117
13,RRIRFRPPRLPRPRPRPMDKPRP,-0.301
14,RRIRYRPPRLPRPRPRPLIIPRP,-1.2
15,RRIRKRPPRLPRPRPRPIGPPRP,0.0335
16,RRIRDRPPRLPRPRPRPVGAPRP,0.825
17,RRIRPRPPRLPRPRPRPCSHPRP,-0.0663
18,RRIRNRPPRLPRPRPRPSVCPRP,-0.174
19,RRIRFRPPRLPRPRPRPVMSPRP,-0.153
20,RRIRLRPPRLPRPRPRPSWDPRP,-0.0231
21,RRIRARPPRLPRPRPRPACSPRP,0.591
22,RRIRKRPPRLPRPRPRPENIPRP,-0.0813

row,Sequence,shrunken log2 fold change
1,RRIRARPPRLPRPRPRPNFCPRP,0.24
2,RRIRPRPPRLPRPRPRPPMYPRP,-0.368
3,RRIRLRPPRLPRPRPRPVYKPRP,-0.134
4,RRIRVRPPRLPRPRPRPEPPPRP,0.664
5,RRIRDRPPRLPRPRPRPSCSPRP,-0.253
6,RRIRGRPPRLPRPRPRPTMKPRP,0.757
7,RRIRSRPPRLPRPRPRPDWRPRP,0.132
8,RRIRMRPPRLPRPRPRPTTGPRP,0.467
9,RRIRYRPPRLPRPRPRPFETPRP,0.111
10,RRIRIRPPRLPRPRPRPKHRPRP,-0.103
11,RRIRFRPPRLPRPRPRPGPKPRP,0.066
12,RRIRHRPPRLPRPRPRPPATPRP,0.29
13,RRIRDRPPRLPRPRPRPWVDPRP,-0.0979
14,RRIRARPPRLPRPRPRPPSRPRP,0.691
15,RRIRMRPPRLPRPRPRPLGPPRP,0.716
16,RRIRERPPRLPRPRPRPDWHPRP,-0.12
17,RRIRQRPPRLPRPRPRPVKFPRP,-0.0717
18,RRIRDRPPRLPRPRPRPQEPPRP,-0.0802
19,RRIRNRPPRLPRPRPRPYHPPRP,-0.135
20,RRIRARPPRLPRPRPRPCCGPRP,0.525
21,RRIRDRPPRLPRPRPRPQDYPRP,-0.112
22,RRIRFRPPRLPRPRPRPEACPRP,-0.0833

row,Sequence,shrunken log2 fold change
1,RRIRRRPPRLPRPRPRPRGWPRP,0.979
2,RRIRARPPRLPRPRPRPHYDPRP,-0.0354
3,RRIRYRPPRLPRPRPRPNVIPRP,-0.338
4,RRIRHRPPRLPRPRPRPKNLPRP,0.133
5,RRIRERPPRLPRPRPRPSGPPRP,-0.203
6,RRIRNRPPRLPRPRPRPSQQPRP,-0.111
7,RRIRSRPPRLPRPRPRPCFHPRP,-0.749
8,RRIRSRPPRLPRPRPRPYDAPRP,-0.557
9,RRIRCRPPRLPRPRPRPTFAPRP,0.359
10,RRIRCRPPRLPRPRPRPPRFPRP,1.34
11,RRIRWRPPRLPRPRPRPTGTPRP,0.288
12,RRIRQRPPRLPRPRPRPAWNPRP,-0.206
13,RRIRYRPPRLPRPRPRPFFCPRP,-0.644
14,RRIRHRPPRLPRPRPRPIPQPRP,-0.126
15,RRIRGRPPRLPRPRPRPNTIPRP,-0.184
16,RRIRARPPRLPRPRPRPGCIPRP,0.315
17,RRIRTRPPRLPRPRPRPRETPRP,0.511
18,RRIRFRPPRLPRPRPRPDCYPRP,-0.329
19,RRIRRRPPRLPRPRPRPFHSPRP,0.00922
20,RRIRDRPPRLPRPRPRPLVMPRP,0.0567
21,RRIRMRPPRLPRPRPRPHQRPRP,0.236

# Source: the supplement of paper PMC9112550, “Optimization of the antimicrobial peptide Bac7 by deep mutational scanning” (BMC Biology, 2022)
